Measurements reported in the RNAGym collection of RNA variant scans (doi:10.7554/elife.80360).

B1: CPEB3 Ribozyme (parent)
chain: GGGGGCCACAGCAGAAGCGUUCACGUCGCGGCCCCUGUCAGAUUCUGGUGAAUCUGCGAAUUCUGCUGU

Variants of: B1
Assay: self-cleavage, relative activity (ratio to wild type); higher = more cleavage; co-transcriptional

Q: With GGGGGCCACAGCACAAGCGUUCACGUCGCGGCCCCUGUCAGUUUCUGGUGAAUCUGCGAAUUCUGCUGU [G14C A42U] as the variant, how does the self-cleavage read?
A: Its self-cleavage is 0.228.

Q: With GGGGGCCACAGCACAAGCGUUCACGUCGCGGCCCCUGUCAGCUUCUGGUGAAUCUGCGAAUUCUGCUGU [G14C A42C] as the variant, how does the self-cleavage read?
A: Its self-cleavage is 0.331.

Q: Which self-cleavage does the source give for GGGGGCCACAGCACAAGCGUUCACGUCGCGGCCCCUGUCAGGUUCUGGUGAAUCUGCGAAUUCUGCUGU [G14C A42G] here?
A: Its self-cleavage is 0.266.

Q: For GGGGGCCACAGCACAAGCGUUCACGUCGCGGCCCCUGUCAGAUUUUGGUGAAUCUGCGAAUUCUGCUGU [G14C C45U], which self-cleavage is on record?
A: The self-cleavage was 0.562.

Q: Which self-cleavage does the source give for GGGGGCCACAGCACAAGCGUUCACGUCGCGGCCCCUGUCAGAUUGUGGUGAAUCUGCGAAUUCUGCUGU [G14C C45G] here?
A: The self-cleavage was 0.468.

Q: Which self-cleavage does the source give for GGGGGCCACAGCACAAGCGUUCACGUCGCGGCCCCUGUCAGAUUAUGGUGAAUCUGCGAAUUCUGCUGU [G14C C45A] here?
A: Its self-cleavage is 0.406.

Q: For GGGGGCCACAGCACAAGCGUUCACGUCGCGGCCCCUGUCAGAUUCUGGUGAAUCUGCGAAUUCUGUUGU [G14C C66U], which self-cleavage is on record?
A: The self-cleavage was 0.358.

Q: For GGGGGCCACAGCACAAGCGUUCACGUCGCGGCCCCUGUCAGAUUCUGGUGAAUCUGCGAAUUCUGAUGU [G14C C66A], which self-cleavage is on record?
A: The self-cleavage was 0.244.

Q: For GGGGGCCACAGCAAAAGCGUUCACGUCGCGGCCCCUGUCAGAUUCUGGUGAAUCUGCGAAUCCUGCUGU [G14A U62C], which self-cleavage is on record?
A: Its self-cleavage is 0.338.

Q: For GGGGGCCACAGCAAAAGCGUUCACGUCGCGGCCCCUGUCAGAUUCUGGUGAAUCUGCGAAUGCUGCUGU [G14A U62G], which self-cleavage is on record?
A: The self-cleavage was 0.605.

Q: Which self-cleavage does the source give for GGGGGCCACAGCAAAAGCGUUCACGUCGCGGCCCCUGUCAGAUUCUGGUGAAUCUGCGAAUACUGCUGU [G14A U62A] here?
A: The self-cleavage was 0.554.

Q: With GGGGGCCACAGCACAAGCGUUCACGUCGCGGGCCCUGUCAGAUUCUGGUGAAUCUGCGAAUUCUGCUGU [G14C C32G] as the variant, how does the self-cleavage read?
A: The self-cleavage was 0.193.

Q: With GGGGGCCACAGCACAAGCGUUCACGUCGCGGACCCUGUCAGAUUCUGGUGAAUCUGCGAAUUCUGCUGU [G14C C32A] as the variant, how does the self-cleavage read?
A: The self-cleavage was 0.25.

Q: For GGGGGCCACAGCACAACCGUUCACGUCGCGGCCCCUGUCAGAUUCUGGUGAAUCUGCGAAUUCUGCUGU [G14C G17C], which self-cleavage is on record?
A: The self-cleavage was 0.119.

Q: With GGGGGCCACAGCACAAACGUUCACGUCGCGGCCCCUGUCAGAUUCUGGUGAAUCUGCGAAUUCUGCUGU [G14C G17A] as the variant, how does the self-cleavage read?
A: The self-cleavage was 0.164.

Q: With GGGGGCCACAGCACACGCGUUCACGUCGCGGCCCCUGUCAGAUUCUGGUGAAUCUGCGAAUUCUGCUGU [G14C A16C] as the variant, how does the self-cleavage read?
A: Its self-cleavage is 0.143.

Q: With GGGGGCCACAGCACAUGCGUUCACGUCGCGGCCCCUGUCAGAUUCUGGUGAAUCUGCGAAUUCUGCUGU [G14C A16U] as the variant, how does the self-cleavage read?
A: Its self-cleavage is 0.28.

Q: For GGGGGCCACAGCACAGGCGUUCACGUCGCGGCCCCUGUCAGAUUCUGGUGAAUCUGCGAAUUCUGCUGU [G14C A16G], which self-cleavage is on record?
A: The self-cleavage was 0.353.

Q: With GGGGGCCACAGCACAAGGGUUCACGUCGCGGCCCCUGUCAGAUUCUGGUGAAUCUGCGAAUUCUGCUGU [G14C C18G] as the variant, how does the self-cleavage read?
A: Its self-cleavage is 0.101.

Q: Which self-cleavage does the source give for GGGGGCCACAGCAAAAGCGUUCACGUCGCGGCCCCUGUCAGAUUCUGGUGAAUCUGCGAAAUCUGCUGU [G14A U61A] here?
A: The self-cleavage was 0.357.

Q: Which self-cleavage does the source give for GGGGGCCACAGCAAAAGCGUUCACGUCGCGGCCCCUGUCAGAUGCUGGUGAAUCUGCGAAUUCUGCUGU [G14A U44G] here?
A: The self-cleavage was 0.64.

Q: For GGGGGCCACAGCAAAAGCGUUCACGUCGCGGCCCCUGUCAGAUACUGGUGAAUCUGCGAAUUCUGCUGU [G14A U44A], which self-cleavage is on record?
A: The self-cleavage was 0.538.

Q: For GGGGGCCACAGCAAAAGCGUUCACGUCGCGGCCCCUGUCAGAUCCUGGUGAAUCUGCGAAUUCUGCUGU [G14A U44C], which self-cleavage is on record?
A: Its self-cleavage is 0.363.

Q: Which self-cleavage does the source give for GGGGGCCACAGCACAAGCGUUCACGUCGCGGCCCCUGUCAGAUUCUGGUGAAUCUGCGAAUUAUGCUGU [G14C C63A] here?
A: The self-cleavage was 0.928.

Q: Which self-cleavage does the source give for GGGGGCCACAGCACAAGCGUUCACGUCGCGGCCCCUGUCAGAUUCUGGUGAAUCUGCGAAUUUUGCUGU [G14C C63U] here?
A: The self-cleavage was 0.862.

Q: With GGGGGCCACAGCACAAGCGUUCACGUCGCGGCCCCUGUCAGAUUCUGGUGGAUCUGCGAAUUCUGCUGU [G14C A51G] as the variant, how does the self-cleavage read?
A: Its self-cleavage is 0.666.

Q: With GGGGGCCACAGCACAAGCGUUCACGUCGCGGCCCCUGUCAGAUUCUGGUGCAUCUGCGAAUUCUGCUGU [G14C A51C] as the variant, how does the self-cleavage read?
A: The self-cleavage was 0.337.

Q: For GGGGGCCACAGCACCAGCGUUCACGUCGCGGCCCCUGUCAGAUUCUGGUGAAUCUGCGAAUUCUGCUGU [G14C A15C], which self-cleavage is on record?
A: Its self-cleavage is 0.166.

Q: Which self-cleavage does the source give for GGGGGCCACAGCAAAAGCGUUCACGUCGCGGCCCCUGUCAGAUUCGGGUGAAUCUGCGAAUUCUGCUGU [G14A U46G] here?
A: The self-cleavage was 0.844.

Q: With GGGGGCCACAGCAAAAGCGUUCACGUCGCGGCCCCUGUCAGAUUCCGGUGAAUCUGCGAAUUCUGCUGU [G14A U46C] as the variant, how does the self-cleavage read?
A: The self-cleavage was 0.709.

Q: For GGGGGCCACAGCAAAAGCGUUCACGUCGCGGCCCCUGUCAGAAUCUGGUGAAUCUGCGAAUUCUGCUGU [G14A U43A], which self-cleavage is on record?
A: Its self-cleavage is 0.306.

Q: For GGGGGCCACAGCAAAAGCGUUCACGUCGCGGCCCCUGUCAGACUCUGGUGAAUCUGCGAAUUCUGCUGU [G14A U43C], which self-cleavage is on record?
A: The self-cleavage was 0.624.

Q: For GGGGGCCACAGCAAAAGCGUUCACGUCGCGGCCCCUGUCAGAGUCUGGUGAAUCUGCGAAUUCUGCUGU [G14A U43G], which self-cleavage is on record?
A: Its self-cleavage is 0.23.

Q: With GGGGGCCACAGCAAAAGCGUUCACGUCGCGGCCCCUGUCAGAUUCUGGUGAAUCUGCGAAUUCUGCGGU [G14A U67G] as the variant, how does the self-cleavage read?
A: The self-cleavage was 0.682.

Q: For GGGGGCCACAGCAAAAGCGUUCACGUCGCGGCCCCUGUCAGAUUCUGGUGAAUCUGCGAAUUCUGCAGU [G14A U67A], which self-cleavage is on record?
A: The self-cleavage was 0.635.

Q: For GGGGGCCACAGCAAAAGCGUUCACGUCGCGGCCCCUGUCAGAUUCUGGUGAAUCUGCGAAUUCUGCCGU [G14A U67C], which self-cleavage is on record?
A: Its self-cleavage is 0.583.

Q: With GGGGGCCACAGCACAAGCGUUCACGUCGCGGCCCCUGUCAGAUUCUGGUGAAUCUGAGAAUUCUGCUGU [G14C C57A] as the variant, how does the self-cleavage read?
A: Its self-cleavage is 0.325.

Q: With GGGGGCCACAGCACAAGCGUUCACGUCGCGGCCCCUGUCAGAUUCUGGUGAAUCUGUGAAUUCUGCUGU [G14C C57U] as the variant, how does the self-cleavage read?
A: Its self-cleavage is 0.28.

Q: For GGGGGCCACAGCACAAGCGUUCCCGUCGCGGCCCCUGUCAGAUUCUGGUGAAUCUGCGAAUUCUGCUGU [G14C A23C], which self-cleavage is on record?
A: The self-cleavage was 0.555.
